Assay results published in the MegaScale stability set (Tsuboyama et al. 2023).

B1: EHEE_rd3_0053 (parent)
chain: TYTFKVDNKDQAKKAAKWAKKLGLSFQIEKHGDTFKITVQ

Variants of: B1
Test: folding stability dG (cDNA display proteolysis); higher = more stable
Conditions: PBS, room temperature

Row | Variant | folding stability dG
1 | TYTFKVDNKDQAKVAAKWAKKLGLSFQIEKHGDTFKITVQ | 2.08 kcal/mol
2 | TYTFKVDNKDQAKWAAKWAKKLGLSFQIEKHGDTFKITVQ | 2.4 kcal/mol
3 | TYTFKVDNKDQAKYAAKWAKKLGLSFQIEKHGDTFKITVQ | 2.17 kcal/mol
4 | TYTFKVDNKDQAKKCAKWAKKLGLSFQIEKHGDTFKITVQ | 3.07 kcal/mol
5 | TYTFKVDNKDQAKKDAKWAKKLGLSFQIEKHGDTFKITVQ | -0.785 kcal/mol
6 | TYTFKVDNKDQAKKEAKWAKKLGLSFQIEKHGDTFKITVQ | 0.415 kcal/mol
7 | TYTFKVDNKDQAKKFAKWAKKLGLSFQIEKHGDTFKITVQ | 3.33 kcal/mol
8 | TYTFKVDNKDQAKKGAKWAKKLGLSFQIEKHGDTFKITVQ | 0.564 kcal/mol
9 | TYTFKVDNKDQAKKHAKWAKKLGLSFQIEKHGDTFKITVQ | 1.42 kcal/mol
10 | TYTFKVDNKDQAKKIAKWAKKLGLSFQIEKHGDTFKITVQ | 3.43 kcal/mol
11 | TYTFKVDNKDQAKKKAKWAKKLGLSFQIEKHGDTFKITVQ | 1.25 kcal/mol
12 | TYTFKVDNKDQAKKLAKWAKKLGLSFQIEKHGDTFKITVQ | 2.82 kcal/mol
13 | TYTFKVDNKDQAKKMAKWAKKLGLSFQIEKHGDTFKITVQ | 2.5 kcal/mol
14 | TYTFKVDNKDQAKKNAKWAKKLGLSFQIEKHGDTFKITVQ | 0.377 kcal/mol
15 | TYTFKVDNKDQAKKPAKWAKKLGLSFQIEKHGDTFKITVQ | -0.232 kcal/mol
16 | TYTFKVDNKDQAKKQAKWAKKLGLSFQIEKHGDTFKITVQ | 0.637 kcal/mol
17 | TYTFKVDNKDQAKKRAKWAKKLGLSFQIEKHGDTFKITVQ | 1.43 kcal/mol
18 | TYTFKVDNKDQAKKSAKWAKKLGLSFQIEKHGDTFKITVQ | 1.26 kcal/mol
19 | TYTFKVDNKDQAKKTAKWAKKLGLSFQIEKHGDTFKITVQ | 1.85 kcal/mol
20 | TYTFKVDNKDQAKKVAKWAKKLGLSFQIEKHGDTFKITVQ | 3.15 kcal/mol
21 | TYTFKVDNKDQAKKWAKWAKKLGLSFQIEKHGDTFKITVQ | 3.48 kcal/mol

Row | Variant | folding stability dG
22 | TYTFKVDNKDQAKKYAKWAKKLGLSFQIEKHGDTFKITVQ | 3.04 kcal/mol
23 | TYTFKVDNKDQAKKADKWAKKLGLSFQIEKHGDTFKITVQ | 0.642 kcal/mol
24 | TYTFKVDNKDQAKKAFKWAKKLGLSFQIEKHGDTFKITVQ | 2.28 kcal/mol
25 | TYTFKVDNKDQAKKAGKWAKKLGLSFQIEKHGDTFKITVQ | 1.84 kcal/mol
26 | TYTFKVDNKDQAKKAHKWAKKLGLSFQIEKHGDTFKITVQ | 1.65 kcal/mol
27 | TYTFKVDNKDQAKKAIKWAKKLGLSFQIEKHGDTFKITVQ | 2.73 kcal/mol
28 | TYTFKVDNKDQAKKAKKWAKKLGLSFQIEKHGDTFKITVQ | 2.41 kcal/mol
29 | TYTFKVDNKDQAKKALKWAKKLGLSFQIEKHGDTFKITVQ | 2.33 kcal/mol
30 | TYTFKVDNKDQAKKAMKWAKKLGLSFQIEKHGDTFKITVQ | 2.45 kcal/mol
31 | TYTFKVDNKDQAKKANKWAKKLGLSFQIEKHGDTFKITVQ | 1.06 kcal/mol
32 | TYTFKVDNKDQAKKAQKWAKKLGLSFQIEKHGDTFKITVQ | 2.16 kcal/mol
33 | TYTFKVDNKDQAKKARKWAKKLGLSFQIEKHGDTFKITVQ | 2.56 kcal/mol
34 | TYTFKVDNKDQAKKASKWAKKLGLSFQIEKHGDTFKITVQ | 1.87 kcal/mol
35 | TYTFKVDNKDQAKKATKWAKKLGLSFQIEKHGDTFKITVQ | 1.87 kcal/mol
36 | TYTFKVDNKDQAKKAVKWAKKLGLSFQIEKHGDTFKITVQ | 2.47 kcal/mol
37 | TYTFKVDNKDQAKKAWKWAKKLGLSFQIEKHGDTFKITVQ | 2.37 kcal/mol
38 | TYTFKVDNKDQAKKAYKWAKKLGLSFQIEKHGDTFKITVQ | 2.45 kcal/mol
39 | TYTFKVDNKDQAKKAAAWAKKLGLSFQIEKHGDTFKITVQ | 2.61 kcal/mol
40 | TYTFKVDNKDQAKKAACWAKKLGLSFQIEKHGDTFKITVQ | 2.6 kcal/mol
41 | TYTFKVDNKDQAKKAADWAKKLGLSFQIEKHGDTFKITVQ | 2.16 kcal/mol
42 | TYTFKVDNKDQAKKAAEWAKKLGLSFQIEKHGDTFKITVQ | 2.36 kcal/mol

Row | Variant | folding stability dG
43 | TYTFKVDNKDQAKKAAFWAKKLGLSFQIEKHGDTFKITVQ | 2.26 kcal/mol
44 | TYTFKVDNKDQAKKAAGWAKKLGLSFQIEKHGDTFKITVQ | 1.9 kcal/mol
45 | TYTFKVDNKDQAKKAAHWAKKLGLSFQIEKHGDTFKITVQ | 2.21 kcal/mol
46 | TYTFKVDNKDQAKKAAIWAKKLGLSFQIEKHGDTFKITVQ | 2.53 kcal/mol
47 | TYTFKVDNKDQAKKAALWAKKLGLSFQIEKHGDTFKITVQ | 2.5 kcal/mol
48 | TYTFKVDNKDQAKKAAMWAKKLGLSFQIEKHGDTFKITVQ | 2.52 kcal/mol
49 | TYTFKVDNKDQAKKAANWAKKLGLSFQIEKHGDTFKITVQ | 2.23 kcal/mol
50 | TYTFKVDNKDQAKKAAPWAKKLGLSFQIEKHGDTFKITVQ | -0.379 kcal/mol
51 | TYTFKVDNKDQAKKAAQWAKKLGLSFQIEKHGDTFKITVQ | 2.57 kcal/mol
52 | TYTFKVDNKDQAKKAARWAKKLGLSFQIEKHGDTFKITVQ | 2.63 kcal/mol
53 | TYTFKVDNKDQAKKAASWAKKLGLSFQIEKHGDTFKITVQ | 2.33 kcal/mol
54 | TYTFKVDNKDQAKKAATWAKKLGLSFQIEKHGDTFKITVQ | 2.17 kcal/mol
55 | TYTFKVDNKDQAKKAAVWAKKLGLSFQIEKHGDTFKITVQ | 2.23 kcal/mol
56 | TYTFKVDNKDQAKKAAWWAKKLGLSFQIEKHGDTFKITVQ | 2.43 kcal/mol
57 | TYTFKVDNKDQAKKAAYWAKKLGLSFQIEKHGDTFKITVQ | 2.34 kcal/mol
58 | TYTFKVDNKDQAKKAAKAAKKLGLSFQIEKHGDTFKITVQ | 1.21 kcal/mol
59 | TYTFKVDNKDQAKKAAKDAKKLGLSFQIEKHGDTFKITVQ | 0.328 kcal/mol
60 | TYTFKVDNKDQAKKAAKEAKKLGLSFQIEKHGDTFKITVQ | 0.8 kcal/mol
61 | TYTFKVDNKDQAKKAAKFAKKLGLSFQIEKHGDTFKITVQ | 1.56 kcal/mol
62 | TYTFKVDNKDQAKKAAKGAKKLGLSFQIEKHGDTFKITVQ | 0.349 kcal/mol
63 | TYTFKVDNKDQAKKAAKHAKKLGLSFQIEKHGDTFKITVQ | 1.22 kcal/mol
